From PMC12720779 come the findings set out here.

Broadly, the Kd is a measure of binding affinity in units of concentration. As a reminder, the stoichiometry N is a count of units in the complex or per binding partner.

Experiment [1] has as its target T2Q A34F variant of GB1. Nature of the experiment: NMR titration; 19F NMR of 3-fluorotyrosine-labelled A34F, serial dilution 500 to 15.6 uM; dimer to monomers; 20 mM phosphate pH 7.0, 10% D2O, 298 K; with ficoll (70 kDa) as crowder.
The target of experiment [2] is T2Q A34F variant of GB1. Nature of the experiment: NMR titration; 19F NMR of 3-fluorotyrosine-labelled A34F, serial dilution 500 to 15.6 uM; dimer to monomers; 20 mM phosphate pH 7.0, 10% D2O, 298 K; with 100 g/L heparin (15 kDa) as crowder.
Experiment [3] has as its target T2Q A34F variant of GB1. Nature of the experiment: NMR titration; 19F NMR of 3-fluorotyrosine-labelled A34F, serial dilution 500 to 15.6 uM; dimer to monomers; 20 mM phosphate pH 7.0, 10% D2O, 298 K; with hyaluronic acid (50 kDa) as crowder.
Experiment [4] concerns the target T2Q A34F variant of GB1. In words: NMR titration; 19F NMR of 3-fluorotyrosine-labelled A34F, serial dilution 500 to 15.6 uM; dimer to monomers; 20 mM phosphate pH 7.0, 10% D2O, 298 K; with 100 g/L mucin (porcine stomach) as crowder.
For experiment [5], the target named is T2Q A34F variant of GB1. Nature of the experiment: NMR titration; 19F NMR of 3-fluorotyrosine-labelled A34F, serial dilution 500 to 15.6 uM, Y33 monomer and dimer peak integrals; dimer to monomers; 20 mM phosphate pH 7.0, 10% D2O, 298 K; buffer alone.

In the case of “T2Q A34F variant of GB1 (domain or fragment)”, the Kd in the experiment with T2Q A34F variant of GB1 [1] was 42 µM; with T2Q A34F variant of GB1 [2], 12 µM; with T2Q A34F variant of GB1 [3] it was 8 µM; in the experiment with T2Q A34F variant of GB1 [4] it was 26 µM; with T2Q A34F variant of GB1 [5], 57 µM. In addition, the stoichiometry N in the experiment with T2Q A34F variant of GB1 [5] was 2.
